Tested on: collagen IV (BD Biosciences)

activated MMP-9 (Chemicon)
alignment of liquid crystal on the surface (zymography; enzymatic digestion of the protein substrate): after 30 minutes incubation with 1 pg MMP-9, the collagen IV has been digested and the liquid crystals align on the exposed SAM

— patent US20130344582
